Reference: patent US20160136280A1, “STABLE INTRAVENOUS FORMULATION” (HOFFMANN-LA ROCHE INC., priority 2013, published 2016)

Tests used:
Oxidation stability = type: physicochemical; conditions: base compound is the major oxidation product
Water solubility = type: physicochemical
Light stability = type: physicochemical; conditions: forms the base compound and other degradants

COCCOCCOC(=O)OC(C)OC(=O)c1ccc(NC(=O)[C@@H]2N[C@@H](CC(C)(C)C)[C@](C#N)(c3ccc(Cl)cc3F)[C@H]2c2cccc(Cl)c2F)c(OC)c1 (stereo partly drawn) [Compound A, 4-{[(2R, 3S, 5S)-4-(4-chloro-2-fluoro-phenyl)-3-(3-chloro-2-fluoro-phenyl)-4-cyano-5-(2,2-dimethyl-propyl)-pyrrolidine-2-carbonyl]-amino}-3-methoxy-benzoic Acid 1-[2-(2-methoxy-ethoxy)-ethoxycarbonyloxy]-ethyl ester]
hydrolysis kinetics in aqueous solutions (aqueous solutions, base compound is the major degradation product): first-order kinetics
most stable pH range (from stability perspective): 3-5 pH
sensitivity to oxidation (Oxidation stability): vulnerable to oxidation
solubility in water (Water solubility): relatively more soluble in water
sensitivity to light (Light stability): light sensitive

COc1cc(C(=O)O)ccc1NC(=O)[C@@H]1N[C@@H](CC(C)(C)C)[C@](C#N)(c2ccc(Cl)cc2F)[C@H]1c1cccc(Cl)c1F [base compound, 4-{[(2R,3S,4R,5S)-3-(3-chloro-2-fluoro-phenyl)-4-(4-chloro-2-fluoro-phenyl)-4-cyano-5-(2,2-dimethyl-propyl)-pyrrolidine-2-carbonyl]-amino}-3-methoxy-benzoic acid]
solubility in water (Water solubility): practically water insoluble
